Source: patent US20090298167A1

Target: human IL-21 (human) (UniProt Q9HBE4)
Assay: cell-based or functional assay

Sequence of human IL-21 (human) (Q9HBE4 25-162 limits assumed): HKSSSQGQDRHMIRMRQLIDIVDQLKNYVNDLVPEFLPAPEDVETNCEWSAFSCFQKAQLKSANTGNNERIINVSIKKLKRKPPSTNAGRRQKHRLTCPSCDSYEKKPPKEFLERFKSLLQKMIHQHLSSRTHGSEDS

Human IL-21R-BaF3 Neutralization IC50: 0.2 nM
Substance: human IL-21R-Fc (from UniProt Q9HBE5 20-232) (Fc fusion)
